Literature values, collected in patent US20020094542A1, “Drugs and methods for treating cancer” (priority 1989, published 2002).

Conditions: patients with kidney transplants

OKT3: monoclonal heterologous AB used clinically in patients with kidney transplants
side-effects of treatment: low (flu-like)
